Experimental data reported in the Human Domainome abundance scans (Beltran et al. 2025).
± gives the uncertainty stated by the source.

B1: Far upstream element-binding protein 1, residues 184 to 257; numbered along this chain, Q96AE4 (parent)
chain: GNAVQEIMIPASKAGLVIGKGGETIKQLQERAGVKMVMIQDGPQNTGADKPLRITGDPYKVQQAKEMVLELIRD
B2: Tudor domain-containing protein 3, residues 554 to 611; numbered along this chain, Q9H7E2 (parent)
chain: KMWKPGDECFALYWEDNKFYRAEVEALHSSGMTAVVKFIDYGNYEEVLLSNIKPIQTE

Variants of: B1
Test: abundance fitness (aPCA) (normalised: wild type 0, dead -1); higher = more abundant; growth selection in yeast, the domain comes from the species named
Settings: Homo sapiens

| Variant | abundance fitness |
| --- | --- |
| Q63K | 0 ± 0.036 |
| P43F | -0.079 ± 0.054 |
| P43R | -0.012 ± 0.03 |
| P43H | 0.003 ± 0.063 |
| A11Q | -0.078 ± 0.04 |
| A11F | -0.13 ± 0.046 |
| Y59C | -0.003 ± 0.044 |
| Y59G | 0.029 ± 0.026 |
| G19K | -0.445 ± 0.043 |
| G19C | -0.473 ± 0.056 |
| Q62F | -0.105 ± 0.048 |
| Q62T | -0.011 ± 0.035 |
| Q62N | -0.097 ± 0.044 |
| K13H | -0.032 ± 0.054 |
| K13R | -0.187 ± 0.028 |
| G42W | -0.33 ± 0.037 |
| G42S | 0.009 ± 0.031 |
| R53H | -0.046 ± 0.055 |
| E6A | -0.12 ± 0.031 |
| G56N | -0.668 ± 0.098 |
| G56K | -0.942 ± 0.07 |
| G56D | -0.803 ± 0.092 |
| G56A | -1.01 ± 0.05 |
| G56E | -1.05 ± 0.076 |
| A14Y | -0.039 ± 0.052 |

| Variant | abundance fitness |
| --- | --- |
| A14V | -0.017 ± 0.035 |
| L16C | -0.147 ± 0.043 |
| L16T | -0.058 ± 0.033 |
| L16A | -0.028 ± 0.033 |
| I25E | -0.638 ± 0.047 |
| I25A | -0.32 ± 0.034 |
| E66P | -0.476 ± 0.049 |
| E66A | -0.091 ± 0.032 |
| E66D | -0.002 ± 0.037 |
| E70F | -0.314 ± 0.049 |
| E70I | -0.432 ± 0.058 |
| E70W | -0.239 ± 0.037 |
| L28V | -0.155 ± 0.032 |
| L28Y | -0.338 ± 0.055 |
| E23P | -0.434 ± 0.038 |
| E23T | 0.041 ± 0.034 |
| I9F | -0.737 ± 0.066 |
| K26H | -0.198 ± 0.057 |
| K26C | -0.179 ± 0.043 |
| G33C | -0.125 ± 0.042 |
| G33P | -0.801 ± 0.058 |
| R73Q | 0.048 ± 0.044 |
| R73I | -0.15 ± 0.058 |
| S12M | -0.071 ± 0.04 |
| I18S | -0.09 ± 0.03 |

| Variant | abundance fitness |
| --- | --- |
| A64W | -1.2 ± 0.07 |
| Q29R | -0.137 ± 0.027 |
| M8E | -0.166 ± 0.039 |
| M38H | -0.13 ± 0.053 |
| G1N | -0.073 ± 0.076 |
| M36Y | -0.786 ± 0.075 |
| M36D | -0.709 ± 0.065 |
| M36N | -0.712 ± 0.077 |
| M36G | -0.67 ± 0.033 |
| D74Y | -0.197 ± 0.051 |
| D74L | -0.277 ± 0.047 |
| D74N | -0.114 ± 0.048 |
| D74M | -0.193 ± 0.067 |
| V37N | -0.065 ± 0.05 |
| D49V | -0.068 ± 0.03 |
| K35Q | 0.015 ± 0.039 |
| I72W | -0.353 ± 0.035 |
| I72E | -0.295 ± 0.035 |
| I72F | -0.136 ± 0.045 |
| P51R | 0.007 ± 0.028 |
| P51Y | -0.059 ± 0.048 |
| Q27W | -0.05 ± 0.035 |
| T24G | -0.008 ± 0.027 |
| T24V | -0.029 ± 0.033 |
| G22T | -0.29 ± 0.042 |

| Variant | abundance fitness |
| --- | --- |
| G21E | -0.059 ± 0.034 |
| G21D | -0.024 ± 0.045 |
| G47R | -0.096 ± 0.028 |
| L69N | 0.019 ± 0.046 |
| L69M | 0.068 ± 0.04 |
| L69R | 0.011 ± 0.026 |
| L69K | -0.028 ± 0.035 |
| L69P | -0.346 ± 0.038 |
| M67L | -0.053 ± 0.029 |
| I7Q | -0.559 ± 0.047 |
| I7W | -0.651 ± 0.04 |
| E30A | -0.039 ± 0.035 |
| L71E | -0.089 ± 0.036 |
| V61C | -0.062 ± 0.042 |
| V61N | -0.764 ± 0.066 |
| T55Y | -0.132 ± 0.054 |
| T55K | -0.165 ± 0.034 |
| T55S | -0.053 ± 0.032 |
| N45A | -0.019 ± 0.034 |
| N45K | -0.008 ± 0.031 |
| N45V | -0.057 ± 0.033 |
| N45P | -0.055 ± 0.04 |
| N45S | -0.057 ± 0.031 |
| A32V | -0.062 ± 0.033 |
| A32S | -0.013 ± 0.032 |

| Variant | abundance fitness |
| --- | --- |
| A32I | -0.034 ± 0.052 |
| T46G | -0.024 ± 0.028 |
| T46Y | -0.115 ± 0.055 |
| T46A | -0.073 ± 0.033 |
| N2T | 0.154 ± 0.034 |
| N2A | 0.043 ± 0.033 |
| Q44L | -0.055 ± 0.032 |
| Q44A | -0.008 ± 0.032 |
| Q44D | 0.004 ± 0.047 |
| Q44G | 0.007 ± 0.027 |
| Q44E | -0.06 ± 0.034 |
| Q44P | 0.006 ± 0.037 |
| Q44H | 0.042 ± 0.052 |
| G15C | 0.127 ± 0.041 |
| G15M | 0.042 ± 0.039 |
| G15P | -0.128 ± 0.034 |
| G15W | -0.005 ± 0.033 |
| G15I | -0.028 ± 0.05 |
| I39V | 0.006 ± 0.031 |
| I39H | -0.095 ± 0.05 |
| P10R | -0.513 ± 0.03 |
| Q5P | -0.726 ± 0.045 |
| Q5R | 0.013 ± 0.025 |
| I54T | -0.723 ± 0.06 |
| I54L | -0.069 ± 0.034 |

| Variant | abundance fitness |
| --- | --- |
| I54K | -0.878 ± 0.067 |
| I54Y | -1.19 ± 0.17 |
| V17Q | -0.703 ± 0.05 |
| A3R | 0.17 ± 0.027 |
| A3N | 0.057 ± 0.053 |
| A3G | -0.059 ± 0.027 |
| V4R | -0.053 ± 0.026 |
| V4F | 0.112 ± 0.047 |
| R31C | -0.084 ± 0.044 |
| R31D | -0.028 ± 0.04 |
| P58C | -0.1 ± 0.047 |
| P58K | -0.016 ± 0.041 |
| P58W | -0.044 ± 0.038 |
| A48T | 0.013 ± 0.038 |
| A48N | -0.086 ± 0.054 |
| V68Y | -0.753 ± 0.067 |
| V68H | -0.495 ± 0.055 |
| V68P | -0.428 ± 0.047 |
| V34G | -0.767 ± 0.033 |
| V34Q | -0.833 ± 0.063 |
| V34L | -0.567 ± 0.036 |
| V34S | -0.639 ± 0.041 |
| V34R | -0.974 ± 0.04 |

Variants of: B2
Test: as above
Settings: Homo sapiens

| Variant | abundance fitness |
| --- | --- |
| M2C | -0.286 ± 0.14 |
| M2A | -0.192 ± 0.075 |
| M2E | -0.19 ± 0.083 |
| K1I | 0.134 ± 0.2 |
| K1D | -0.182 ± 0.21 |
| K1S | -0.283 ± 0.14 |
| K1Y | -0.158 ± 0.27 |
| K1L | -0.187 ± 0.18 |
| K1V | -0.225 ± 0.13 |
| K1N | 0.085 ± 0.15 |
| K1G | -0.138 ± 0.14 |
| K1Q | -0.657 ± 0.25 |
| K1H | -0.003 ± 0.25 |
| K1A | -0.218 ± 0.14 |
| K1R | -0.326 ± 0.1 |
| K1W | -0.336 ± 0.33 |
| K1E | -0.143 ± 0.2 |
| K1T | -0.278 ± 0.17 |
| K1C | -0.261 ± 0.4 |
